Source: US20250019432A1 (MABLYTICS, published 2025)
Numbering of substitutions follows the chain as printed.

T1: S12-C2 (human, UniProt Q96PQ1 1-481)
T1 construct: also called siglec12 C2set2 region
T1 sequence: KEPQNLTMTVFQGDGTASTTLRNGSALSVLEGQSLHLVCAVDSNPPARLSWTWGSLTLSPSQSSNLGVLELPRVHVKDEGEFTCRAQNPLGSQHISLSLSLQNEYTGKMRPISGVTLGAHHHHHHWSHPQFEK

B1: S0102 (antibody, V domains shown)
VH: QVQLVESGGGVVQPGRSLRLSCAASGFTFSSYGMHWVRQAPGKGLEWVAVISYDGSNKYYTDSVKGRFTISRDNSKNTLYLQMNSLRAEDTAVYYCARGGYYGSGSLDYWGQGTLVTVSS
VL: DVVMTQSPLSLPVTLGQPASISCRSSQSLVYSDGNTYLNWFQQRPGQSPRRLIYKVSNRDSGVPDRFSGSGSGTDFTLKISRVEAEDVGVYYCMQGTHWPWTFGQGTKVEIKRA
notes: human variable domains with mouse constant regions (Trianni mouse hybridoma); also called S0102 anti-Siglec12 antibody
B2: S0042 (antibody, V domains shown)
VH: QVQLVQSGTEVKKPGASVKVSCKVSGYTLSDLSIHWVRQAPGKGLEWMGGFEPEDGEIIYAQKFQGRVIMTEDTSTDTAYMKLSSLRSEDTAVYYCATDKRYFDWLLSGFDYWGQGTLVTVSS
VL: DIQLTQSPSFLSASVGDRVTITCRASQGISSYLAWYQQKPGKAPKLLIFAASTLQSGVPSRFSGSGSGTEFTLTISSLQPEDFATYYCQRLHSYPRTFGQGTKVEIKRA
notes: human variable domains with mouse constant regions (Trianni mouse hybridoma)
B3: S0057 (antibody, V domains shown)
VH: QGQLVQSGAEVKKPGASVKVSCKASGYTFNNYGISWVRQAPGQGLEWMGWISAYNGFTRSTQKFQGRVTLTTDTSTSTAHMELRSLRSDDTAAYYCARDGGDGFDPWGQGTLVTVSS
VL: EIVLTQSPATLSLSPGERATLSCRASQSVSSFLAWYQQKPGQAPRLLIFDASNRATGIPARFSGSGSGTDFTLTISSLEPEDFAVYYCQQRSNWITFGQGTRLEIKRA
notes: human variable domains with mouse constant regions (Trianni mouse hybridoma); also called S0057 whole antibody
B4: S0040 (antibody, V domains shown)
VH: QVQLVQSGAEVKKPGASVKVSCKASGYTFTSYDINWVRQATGQGLEWMGWMNPNSGNTGYAQNFQGRVTMTRNTSINTAYMELSSLRSEDTAVYYCTRGGPTLVRGVIIRDAFDFWGQGTMVTVSS
VL: EIVMTQSPATLSVSPGERATLSCRASQSVSNSFAWYQQKPGQAPRLLIYGAFTRATGIPARFSGSGSGTEFTLTISSLQSEDFAVYYCQQYKTWPLTFGGGTKVEIKR
notes: as for B2
B5: S0103 (antibody, V domains shown)
VH: B4 VH with N73D, I76V, T97A, T102N
VL: B4 VL with T69I
notes: as for B2
B6: S0023 (antibody, V domains shown)
VH: EVQLLESGGGLVQPGGSLRLSCAASGFTFSTFAMSWVRQAPGKGLEWVSTISGGGDSTYYADSVKGRFTISRDNSKNMMSLQMNSLRAVDTAVYYCVKGGGDEYFYYGMDVWGQGTTVTVSS
VL: DIQMTQSPSSLSASVGDRVTITCRASQGIRNDLGWYQQKPGKAPKRLIYSASSLQSGVPSRFSGSGSGTEFTLTISSLQPEDFATYYCLQHNSYPYTFGQGTPLDIKR
notes: as for B2

Target: T2, S12-V1 (human)
T2 construct: also called siglec12 Vset1 region
Assay: ELISA
Description: (§1) For ELISA assays, purified subdomain proteins were passively immobilized on assay plates and incubated with media from hybridoma cultures described above before detection of bound anti-subdomain antibodies using anti-mouse (heavy/light) secondary antibody conjugated to horseradish peroxidase (HRP). Levels of bound secondary antibody were assessed by applying colorimetric substrate and measuring absorbance values at 450 nm. Absorbance values greater than 0.07 indicate specific binding.

T2 sequence (chain, as listed by the source limits assumed): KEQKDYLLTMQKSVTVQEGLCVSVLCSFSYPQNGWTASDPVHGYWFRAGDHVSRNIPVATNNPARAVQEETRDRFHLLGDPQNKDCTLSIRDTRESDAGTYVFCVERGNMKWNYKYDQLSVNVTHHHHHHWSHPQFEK

binding result	A450	Binder
no binding (tested: A450 0.07)		B1
	0.1	B2
no binding (tested: A450 0.07)		B3
no binding (tested: A450 0.07)		B4
no binding (tested: A450 0.07)		B5
no binding (tested: A450 0.07)		B6

Target: T1, S12-C2
Assay: ELISA
Description: as §1

A450	binding result	Binder
0.08		B1
	no binding (tested: A450 0.07)	B2
	no binding (tested: A450 0.07)	B3
	no binding (tested: A450 0.07)	B6

Target: T3, S12-V2C1 (human, UniProt Q96PQ1 1-358)
T3 construct: also called siglec12 Vset2-C2set1 region
Assay: ELISA
Description: as §1

T3 sequence (Q96PQ1 other isoform, or with tags, fused parts or gaps limits assumed): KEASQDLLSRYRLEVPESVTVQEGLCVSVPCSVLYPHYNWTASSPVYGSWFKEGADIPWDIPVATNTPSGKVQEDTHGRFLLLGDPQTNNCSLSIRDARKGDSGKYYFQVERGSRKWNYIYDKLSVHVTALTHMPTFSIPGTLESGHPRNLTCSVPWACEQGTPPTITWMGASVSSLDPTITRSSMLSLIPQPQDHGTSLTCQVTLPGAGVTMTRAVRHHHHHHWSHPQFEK

A450	binding result	Binder
1.65		B1
	no binding (tested: A450 0.07)	B2
0.62		B3
	no binding (tested: A450 0.07)	B4
	no binding (tested: A450 0.07)	B5

Target: T4, S9ecto-Fc (human siglec9 ectodomain fused with human Fc domain) (human, UniProt Q9Y336 18-348)
T4 construct: extracellular domain; bought from R&D Systems; not shown: human Fc domain
Assay: ELISA
Description: (§2) Fusion proteins of human siglec7 or siglec9 ectodomains fused with human Fc domains (R&D Systems, Minneapolis, MN) were immobilized on assay plates and incubated with media from hybridoma cultures described above before detection of bound antibodies using anti-mouse (heavy/light) secondary antibody conjugated to HRP. Levels of bound secondary antibody were assessed by applying colorimetric substrate and measuring absorbance values at 450 nm.

T4 sequence (Q9Y336 18-348): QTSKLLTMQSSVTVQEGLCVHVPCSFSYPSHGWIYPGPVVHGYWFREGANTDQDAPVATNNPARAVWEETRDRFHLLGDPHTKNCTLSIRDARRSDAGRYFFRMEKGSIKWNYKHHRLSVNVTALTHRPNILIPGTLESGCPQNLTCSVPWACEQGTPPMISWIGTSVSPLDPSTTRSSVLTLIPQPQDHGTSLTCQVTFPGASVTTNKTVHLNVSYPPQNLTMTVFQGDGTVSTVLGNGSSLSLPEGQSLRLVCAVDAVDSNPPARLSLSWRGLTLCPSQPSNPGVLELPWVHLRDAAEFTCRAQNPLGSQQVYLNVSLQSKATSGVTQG

A450	Binder
0.06	B1
0.05	B2
0.08	B3
0.05	B4
0.05	B5
0.05	B6

Target: T5, S7ecto-Fc (human siglec7 ectodomain fused with human Fc domain) (human, UniProt Q9Y286 19-353)
T5 construct: extracellular domain; bought from R&D Systems; not shown: human Fc domain
Assay: ELISA
Description: as §2

T5 sequence (Q9Y286 19-353): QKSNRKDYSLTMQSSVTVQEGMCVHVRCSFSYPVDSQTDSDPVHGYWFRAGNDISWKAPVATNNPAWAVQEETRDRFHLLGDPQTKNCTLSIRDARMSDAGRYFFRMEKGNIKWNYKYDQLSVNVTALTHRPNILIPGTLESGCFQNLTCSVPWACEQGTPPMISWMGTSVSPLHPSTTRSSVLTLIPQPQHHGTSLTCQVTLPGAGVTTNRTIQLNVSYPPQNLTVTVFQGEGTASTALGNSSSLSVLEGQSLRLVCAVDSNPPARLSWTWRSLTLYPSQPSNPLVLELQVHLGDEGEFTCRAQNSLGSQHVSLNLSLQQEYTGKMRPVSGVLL

A450	Binder
0.07	B1
0.06	B2
0.07	B3
0.05	B4
0.06	B5
0.05	B6

Target: T6, siglec9 with C-terminal FLAG tag on Expi 293 cells (UniProt Q9Y336 18-463, limits assumed)
T6 construct: whole, on cells; not shown: C-terminal FLAG tag
Assay: flow cytometry, transfected Expi 293, 500 nM
Description: (§3) To verify anti-siglec12 antibody specificity for native siglec12 (over other siglec family members), cross-reactivity analysis was carried out using flow cytometry. Expi 293 cells were grown in 6 well plates and transfected with […] of pcDNA3.1 expression vectors (Thermo Fisher Scientific, Waltham, MA) with inserts encoding siglec6, siglec7, siglec8, siglec9, or siglec12 proteins with C-terminal FLAG tags. The following day, Expi293 enhancers were added. On day 2 (post-transfection) cells were washed in PBSB and aliquoted into plastic V-bottomed plates at a density of 5×10⁵ cells/well. An aliquot was also used for Western blot analysis to confirm siglec expression (using anti-FLAG antibody as described below). Plated cells were incubated with anti-siglec12 antibodies at a concentration of 500 nM or siglec-specific control antibody (all from R&D Systems, Minneapolis, MN; Siglec6-specific clone 767329; Siglec8-specific clone 837535; Siglec9-specific clone 191240) at a concentration of 12.5 μg/mL for 2 hours on ice. Cells were then washed with ice cold PBSB and incubated with PE-goat anti mouse H/L chain secondary antibody (1:400 in PBSB) for 30 minutes on ice. Cells were again washed with ice cold PBSB and analyzed for surface staining based on fluorescence intensity determined by GUAVA® […]™ Plus flow cytometer.

T6 sequence (Q9Y336 18-463 limits assumed): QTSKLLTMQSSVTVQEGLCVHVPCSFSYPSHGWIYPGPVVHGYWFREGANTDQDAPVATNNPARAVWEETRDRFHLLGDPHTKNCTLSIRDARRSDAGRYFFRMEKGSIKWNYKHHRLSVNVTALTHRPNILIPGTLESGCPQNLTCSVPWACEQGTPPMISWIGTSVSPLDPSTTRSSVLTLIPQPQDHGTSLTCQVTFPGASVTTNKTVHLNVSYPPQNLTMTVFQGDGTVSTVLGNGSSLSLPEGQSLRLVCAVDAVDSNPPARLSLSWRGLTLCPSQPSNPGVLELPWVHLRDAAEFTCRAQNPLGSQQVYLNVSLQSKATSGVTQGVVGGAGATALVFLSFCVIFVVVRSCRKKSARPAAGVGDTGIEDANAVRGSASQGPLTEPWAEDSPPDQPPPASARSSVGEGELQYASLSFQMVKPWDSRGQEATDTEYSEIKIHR

MFI	Binder
2.3	B2
1.3	B3
3	B6

Target: T7, siglec7 with C-terminal FLAG tag on Expi 293 cells (UniProt Q9Y286 19-467, limits assumed)
T7 construct: whole, on cells; not shown: C-terminal FLAG tag
Assay: flow cytometry, transfected Expi 293, 500 nM
Description: as §3

T7 sequence (Q9Y286 19-467 limits assumed): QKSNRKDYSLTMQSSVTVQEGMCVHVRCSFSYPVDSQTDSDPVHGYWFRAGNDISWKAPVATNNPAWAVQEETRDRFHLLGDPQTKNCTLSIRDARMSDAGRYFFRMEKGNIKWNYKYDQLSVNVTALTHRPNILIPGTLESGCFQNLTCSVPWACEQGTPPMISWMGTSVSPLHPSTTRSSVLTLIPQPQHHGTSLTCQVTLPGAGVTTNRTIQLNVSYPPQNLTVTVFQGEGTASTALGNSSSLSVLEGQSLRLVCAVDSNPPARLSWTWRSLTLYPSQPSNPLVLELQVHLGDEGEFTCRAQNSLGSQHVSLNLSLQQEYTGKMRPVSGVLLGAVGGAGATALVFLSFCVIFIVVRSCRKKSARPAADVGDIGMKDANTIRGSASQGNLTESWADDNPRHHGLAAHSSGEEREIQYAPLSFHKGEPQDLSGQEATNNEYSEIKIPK

MFI	Binder
3.9	B2
2.8	B3
2.1	B6

Target: T8, siglec8 with C-terminal FLAG tag on Expi 293 cells (UniProt Q9NYZ4 17-499, limits assumed)
T8 construct: whole, on cells; not shown: C-terminal FLAG tag
Assay: flow cytometry, transfected Expi 293, 500 nM
Description: as §3

T8 sequence (Q9NYZ4 17-499 limits assumed): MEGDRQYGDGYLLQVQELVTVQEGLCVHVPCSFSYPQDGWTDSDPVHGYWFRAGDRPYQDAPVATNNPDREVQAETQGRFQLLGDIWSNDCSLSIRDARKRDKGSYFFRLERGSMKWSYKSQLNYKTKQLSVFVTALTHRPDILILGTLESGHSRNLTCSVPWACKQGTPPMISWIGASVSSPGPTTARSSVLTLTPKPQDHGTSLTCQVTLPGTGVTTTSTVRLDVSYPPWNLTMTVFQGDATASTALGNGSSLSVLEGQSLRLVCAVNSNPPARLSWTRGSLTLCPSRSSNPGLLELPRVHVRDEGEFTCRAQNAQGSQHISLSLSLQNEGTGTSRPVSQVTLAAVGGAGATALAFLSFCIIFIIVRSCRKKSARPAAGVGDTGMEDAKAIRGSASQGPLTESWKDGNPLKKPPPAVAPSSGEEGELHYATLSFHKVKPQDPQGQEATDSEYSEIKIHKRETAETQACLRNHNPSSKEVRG

MFI	Binder
7	B1
5.3	B2
6.3	B3
2.8	B6

Target: T5, S7ecto-Fc (human siglec7 ectodomain …)
Assay: ELISA
Remark: another data set of the same source

Binder	binding result
B3	no binding (tested: A450>0.09 (so in the source))

Target: T9, S12-Fc (human siglec12 extracellular domain fused with mouse Fc2a fragment) (human; mouse)
T9 construct: also called S12ecto-mouse Fc2a
Assay: ELISA
Description: After 6 weeks of immunization, serum samples from immunized mice were screened for the presence of siglec12-specific immunoglobulins. Screening was carried out by enzyme-linked immunosorbent assay (ELISA) and by fluorescence-associated cell sorting (FACS). ELISA assays utilized assay plates coated with S12-Fc target antigen for immobilization of siglec12-specific immunoglobulins from mouse serum samples, which were detected using anti-mouse light chain (kappa and lambda) secondary antibody conjugated to horseradish peroxidase (HRP). The level of bound secondary antibody was assessed by incubation with colorimetric peroxidase substrate followed by measurement of light absorbance intensity values obtained at 450 nm. For FACS analysis, serum samples were combined with U937 cells (Fc receptor blocked with 10% human serum), an AML cell line that overexpresses human siglec12. Immunoglobulin binding to siglec12 associated with these cells is a strong indicator of potential immunotherapeutic use to treat AML. Anti-mouse heavy chain fluorescent detection reagents were used to label cell surface-bound serum immunoglobulins before FACS analysis. Lymph node and spleen cells from the three best responders were harvested and fused with P3X63Ag8.653 mouse myeloma cells. After 10-14 days of selection, the resulting hybridoma library was single-cell cloned into 96-well culture plates using FACS. After 10-14 days of single cell expansion, all monoclonal hybridoma culture supernatants were screened for S12-Fc binding immunoglobulins by ELISA. Supernatant positive for S12-Fc-binding immunoglobulins was further screened by FACS for immunoglobulin binding to U937 cells. The Table includes an antibody identification number (ID #) assigned to siglec12-binding antibodies associated with each hybridoma culture. For ELISA results, background adjusted mean absorbance values obtained at 450 nm are shown. For FACS analysis, Flow Fluor MFI is the mean fluorescence intensity from flow cytometry assay (background MFI=100) and flow % gated is the percentage of cells having greater than background fluorescence.

T9 sequence (chain, as listed by the source limits assumed): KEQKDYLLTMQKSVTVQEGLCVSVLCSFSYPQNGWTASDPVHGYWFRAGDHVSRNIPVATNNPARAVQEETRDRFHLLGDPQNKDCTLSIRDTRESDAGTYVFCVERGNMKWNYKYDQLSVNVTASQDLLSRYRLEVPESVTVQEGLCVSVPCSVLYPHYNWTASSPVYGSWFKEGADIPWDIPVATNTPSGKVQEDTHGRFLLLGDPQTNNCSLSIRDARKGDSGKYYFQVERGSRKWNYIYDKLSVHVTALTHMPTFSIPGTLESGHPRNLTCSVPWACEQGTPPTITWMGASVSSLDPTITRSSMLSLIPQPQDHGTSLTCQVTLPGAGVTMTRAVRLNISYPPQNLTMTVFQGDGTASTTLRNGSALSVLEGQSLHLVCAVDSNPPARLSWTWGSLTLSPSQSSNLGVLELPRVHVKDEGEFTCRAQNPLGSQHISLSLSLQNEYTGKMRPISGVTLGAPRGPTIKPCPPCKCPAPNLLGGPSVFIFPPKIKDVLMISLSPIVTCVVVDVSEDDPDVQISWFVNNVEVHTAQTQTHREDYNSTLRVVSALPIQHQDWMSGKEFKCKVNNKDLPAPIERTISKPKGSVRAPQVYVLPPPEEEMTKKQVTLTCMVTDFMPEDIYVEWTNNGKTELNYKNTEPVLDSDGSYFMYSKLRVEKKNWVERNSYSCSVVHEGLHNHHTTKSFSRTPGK

A450	Binder
3.34	B1
1.99	B2
2.64	B3
